# B1: full-length Rattus norvegicus kynurenine 3-monooxygenase (Rat-KMO), crystallisation construct (enzyme, Rattus norvegicus (rat), UniProt O88867 1-478, looked up)
# chain: MASSDTEGKRVVVIGGGLVGALNACFLAKRNFQVDVYEAREDIRVANFMRGRSINLALSYRGRQALKAVGLEDQIVSKGVPMKARMIHSLSGKKSAIPYGNKSQYILSISREKLNKDLLTAVESYPNAKVHFGHKLSKCCPEEGILTMLGPNKVPRDITCDLIVGCDGAYSTVRAHLMKKPRFDYSQQYIPHGYMELTIPPKNGEYAMEPNCLHIWPRNAFMMIALPNMDKSFTCTLFMSFEEFEKLPTHSDVLDFFQKNFPDAIPLMGEQALMRDFFLLPAQPMISVKCSPFHLKSRCVLMGDAAHAIVPFFGQGMNAGFEDCLVFDELMDKFNNDLSVCLPEFSRFRIPDDHAISDLSMYNYIEMRAHVNSRWFLFQRLLDKFLHALMPSTFIPLYTMVAFTRIRYHEAVLRWHWQKKVINRGLFVLGSLVAIGSAYILVHHLSPRPLELLRSAWTGTSGHWNRSADISPRVPWSH
# notes: thrombin site between GST and the N-terminus, TEV site before the C-terminal FLAG tag; C-terminus disordered from H443 in the structure; crystallised in meso with compound 3 or compound 4; No TEV cleavage is described; Treated with N-Glycosidase F; also called full-length KMO (1-478); not shown: GST, N-terminal, cleaved
# Biological target: the molecule itself
# Experiment: crystal structure; in meso (lipidic cubic phase, 9:1 monoolein:cholesterol); Rat-KMO with compound 3 (and NADPH) or compound 4; 3.0 Å
protein,measurement,value
B1,stoichiometry N,2

# Reference: PMC7862291, “Full-length in meso structure and mechanism of rat kynurenine 3-monooxygenase inhibition” (Communications Biology, 2021)
